From paper PMC3554717

Target: endogenous CSK (Jurkat) (UniProt P41240)
Test: GST pull-down, CSK immunoblot densitometry
Settings: Jurkat cell lysates (3×10^8 cells divided into five tubes); GST alone lane 0.00; parent: 84.98

response (arbitrary units): -0
Substance: LYP P1 motif (Arg620) fused to GST R620W
